According to paper PMC6901939, “A Novel Single Domain Antibody Targeting FliC Flagellin of Salmonella enterica for Effective Inhibition of Host Cell Invasion” (Frontiers in Microbiology, 2019):

Target: T1, FliC flagellin of S. enterica serovar Typhimurium (Salmonella enterica serovar …, UniProt P06179)
T1 construct: FliC flagellin, Salmonella enterica serovar Typhimurium; also called purified FliC; source: bought: Sigma-Aldrich
Test: BLI; sdAb immobilized on nickel-charged biosensors and dipped into FliC at 250, 125, 62.5, 31.3 and 15.6 nM
Conditions: both partners purified

T1 sequence (P06179 whole entry): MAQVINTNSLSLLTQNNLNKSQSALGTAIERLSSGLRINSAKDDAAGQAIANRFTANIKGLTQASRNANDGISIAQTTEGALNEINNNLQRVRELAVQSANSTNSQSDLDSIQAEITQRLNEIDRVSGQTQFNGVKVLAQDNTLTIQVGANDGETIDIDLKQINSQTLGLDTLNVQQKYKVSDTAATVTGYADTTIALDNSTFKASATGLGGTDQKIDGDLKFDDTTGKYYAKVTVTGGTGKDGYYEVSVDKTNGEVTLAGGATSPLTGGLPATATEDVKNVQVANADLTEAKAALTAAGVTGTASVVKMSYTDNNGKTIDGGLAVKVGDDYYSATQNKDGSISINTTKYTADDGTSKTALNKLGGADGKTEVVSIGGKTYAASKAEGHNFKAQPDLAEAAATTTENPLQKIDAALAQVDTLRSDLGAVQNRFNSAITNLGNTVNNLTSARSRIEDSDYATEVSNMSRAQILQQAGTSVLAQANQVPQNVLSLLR

B1: Abi-Se07 (VHH)
VHH: QVQLVESGGGLVQAGGSLRLSCTDSGRTFSVKPMGWFRQAPGMEREFVAAASFTGVSTFYADSVKDRFTIFRDKDKNTMDLQINSLKPEDTGAYYCAGTTRTLWGSKWRDVLEYEYWGQGTQVTVSS
notes: X2 = V or K), CDR2 ASX3TGVST (X3 = F or Y), CDR3 AGTX4RTLWGSKWRDX5X6EYEY (X4 = T or L; X5 = V or R; X6 = L or R); CDR3 is 20 amino acids long; The c-myc tag lies between the VHH and the His6 tag, so it probably stayed on the protein; Gene synthesized and cloned into pET27b; also called 0A07; anti-Salmonella sdAb; not shown: His6, C-terminal, kept
  Kd: 16.2 nM
